Data published in PMC4575208, “Characterization of Flavin-Containing Opine Dehydrogenase from Bacteria” (PLoS ONE, 2015).

B1: BjOdhB2 (beta-subunit of BjOpnDH2, BjOdhAB2C) (Bradyrhizobium diazoefficiens USDA 110) (protein)
chain 1: MTGNVDAIVIGGGIHGCSTTLHLCLAGLKPVLIEKDYAGRHASGVNAGGVRQLARHVPEIPLSIRSMGIWERITDLLDDDCSFESHGQVLVAENEDELAVCRARVAELNALGFTHEELIDATELRRLVPAVAETCPGGVVSRRDGAANPAQTTTAFRRKAEQLGATVREGVAASNIRYSDGLWYVDVGSDTYAAPVLVNAAGAWAGKIAAALGEPVPVETVAPMLMITSRVPHFIDPVVILRGRKLSFKQFSNGTVLIGGGHLATPYQDRNETVLDWKSLAISARTVFELFPVMRSATIVRAWAGIEAKMKDDIPVFGPSSRHKGLYHQFGFSLHGFQLGPGAGAVMAELIVNGGTQTRIGDLGIDRFHPSTL
chain 2: MTVAPKREDYDVVVIGAGPAGLAAAATSAEAGLSTLLLDENIGPGGQVFRAISSTPVTDRNQLGADYWVGADLVQSLRASNAEVIQRAMVWSLDRNLDIAVSVGGASAFVKAKRVILATGALERPFPIPGWTLPGVMTAGAAQTMLKSSALVPDGRTVIAGQGPLLWLLAAQILRLGGRIDRILDTTERGNYFAALPHAFAFLTSPYFAKGLSMMREVKAKVQVVTGVTELTASGDGQLANVSYVAGGKRETLPVDLLLLHQGVVPNVNLAMAAGVEHRWDELQLCWSPVLDANGSSSVAGIAIAGDGAGIGGANAAVVRGRIAARAAVEALAPAAAAKLASMATLRADLAKAERGRAFLDTLFRPAPQFRIPSGDTIVCRCEEVTAKDVLDSVAIGATGPNQLKAYRRTGMGPCQGRLCGLTVTELMAQARGKSPQEIGYYRLRAPVKPITLAELAAVPKTEDDVKAVVRG
B2: BjOdhB1 (beta-subunit of BjOpnDH1, BjOdhAB1C) (Bradyrhizobium diazoefficiens USDA 110) (protein)
chain 1: MSGEYDVAVVGGGLLGSAIAWGLGRLGKKVAVLDEGDITKRASRANFALVWVQSKGLGMPAYTVWTVQASQAWGRLAFELKQQTGLDVSLQQNGGFHLTLGEDEFGQRTELVKRMHNQVGAADYKMEMLPASEVKKALPLIGPEVSGGSYCPLDGHVNSLRTFRAFHTGFMAFGIDYLPERPVSAISKSGGEFRLTTPKGELRAAKVVLAAGNANQTLAPMVGLHAPMGPTRGQIVVTERTMPFLPHPLTTIRQTDEGTVMIGDSKEDELDDRTLKHSISAVMTDRAQRMFPHLSRLNVIRSWAGIRVMPQDGFPIYDQSETHPGAFVACCHSGVTLASNHAFEIARMVAQGALEPELVGAFSASRFGGAGAANNSGY
chain 2: B1 chain 2
B3: PpOdhA, α-subunit of opine dehydrogenase from Pseudomonas putida KT2440 (enzyme, UniProt Q88EK6 1-464, looked up)
chain: MSRTFDVVIVGAGPAGMSAAVVLSEQGLQVLVVDEQPAPGGQIWRAVETIAHTATGDILGAEYKSGAELVQRFRACGAKYEPNTQMWKIEPGWTVFIKSNGVAEAVGARQVLLATGAQERPAPFPGWTLPGVLTVGAAQILLKTSRQIPAEPVWVVGSGPLPLLYMAQLIRAGGKVAGWLDTTPPGGWRRALPWASSMVAEFKEVSKGLAWLHEIRRSGARRIKGVKELRALGDGRLEQLQFRLKSGELCTVPASVLLSHEGVIPSIHITQSLGCKHSWSAQQRCLVPDLDEWGETDQSGIFVAGDGAGIGGAKAACVRGELAAIGMAKRAGRMAADEVAKNTDALSRRLQTLLRLRPMLDSMYPPRESIYTPSDETVVCRCEELTAGDIRKACAIAQPGVNQLKAFTRAGMGPCQGRQCGYTIASIVAAEQQKAVEDVGFYRIRPPLKPITLGELASLDVEEK
notes: PpOdhA, product of gene PP_4456 of Pseudomonas putida KT2440; GTG used as start codon; band of 46 kDa (45 kDa in the methods); The start (GTG codon) may differ from the annotated entry; also called PP_4456
B4: PpOdhB (beta-subunit of PpOpnDH, PpOdhABC) (Pseudomonas putida KT2440) (protein)
chain 1: MTAQFDVIIIGGGMVGAAIGYGLAGGKRRILMLDGADTDYRAAKANFGLVWAHGKGMRDPNYQRLSLNAAKAWPSFASQLEEESGISLDYEQKGGLNFCLSDDEFDARAKAMDAWNRQTPELAPSAHMLDRAELLRRFPTMKIGKAVVGASFGEFDGHANPLRLLAAMQKAFMARGGQLQNNRPVTDIRRLSGGGFEVQSGEYRAQCERIVIAAGLGCAALGPMVGLNVPIRPQRGQLLVTERLAPLLPIPGSGLRQTAEGTVMIGVTQEEVGFDLATTTEGAARITRKALKILPDLAQAKLVRQWSCLRIMTPDGNPVYARSLTHPGAEIATCHSGVTLASFHANEYAKAFDAKSIPADLEIFHYGRFDLQKTS
chain 2: SRTFDVVIVGAGPAGMSAAVVLSEQGLQVLVVDEQPAPGGQIWRAVETIAHTATGDILGAEYKSGAELVQRFRACGAKYEPNTQMWKIEPGWTVFIKSNGVAEAVGARQVLLATGAQERPAPFPGWTLPGVLTVGAAQILLKTSRQIPAEPVWVVGSGPLPLLYMAQLIRAGGKVAGWLDTTPPGGWRRALPWASSMVAEFKEVSKGLAWLHEIRRSGARRIKGVKELRALGDGRLEQLQFRLKSGELCTVPASVLLSHEGVIPSIHITQSLGCKHSWSAQQRCLVPDLDEWGETDQSGIFVAGDGAGIGGAKAACVRGELAAIGMAKRAGRMAADEVAKNTDALSRRLQTLLRLRPMLDSMYPPRESIYTPSDETVVCRCEELTAGDIRKACAIAQPGVNQLKAFTRAGMGPCQGRQCGYTIASIVAAEQQKAVEDVGFYRIRPPLKPITLGELASLDVEEK

What was measured:
[1] = target: (His)6-tagged PpOdhB, β-subunit of opine dehydrogenase from Pseudomonas putida KT2440 (Pseudomonas putida KT2440) (UniProt Q88EK5); experiment: pull-down; PpOdhB-C-A operon with N-terminal (His)6-tag on OdhB expressed in P. putida cells; Ni-NTA chromatography in buffer with Tween-20, 300 mM NaCl, pH 8.0; bands on SDS-PAGE identified by N-terminal sequencing; molar ratio by image scanning of SDS-PAGE peak areas (ImageJ)
[2] = target: T1, PpOdhB (beta-subunit of PpOpnDH, PpOdhABC) (Pseudomonas putida, UniProt Q88EK5+Q88EK6); experiment: inhibition of nopaline ([…]) dehydrogenase activity of the purified enzyme; assay type: biochemical
T1 construct: gene ooxB; N-terminal (His)6-tagged PpOdhB in the PpOdhABC complex (α4β4γ4); with PpOdhA (PP_4456) and PpOdhC
T1 sequence (Q88EK5 1-375): B4 chain 1
T1 sequence (Q88EK6 2-464): B4 chain 2

purified protein [3] = substrate: C[C@@H](N[C@@H](CCCNC(=N)N)C(=O)O)C(=O)O; experiment: purified protein; conditions: FAD, FMN
[4] = target: T2, (His)6-tagged PpOdhB, β-subunit of opine dehydrogenase from Pseudomonas putida KT2440 (Pseudomonas putida KT2440, UniProt Q88EK5 1-375); experiment: pull-down; PpOdhB-C-A operon with N-terminal (His)6-tag on OdhB expressed in P. putida cells; Ni-NTA chromatography in buffer with Tween-20, 300 mM NaCl, pH 8.0; bands on SDS-PAGE identified by N-terminal sequencing; molar ratio by image scanning of SDS-PAGE peak areas (ImageJ); conditions: partners not purified
T2 construct: PpOdhB, product of gene PP_4457 of Pseudomonas putida KT2440; first gene of the operon PpOdhB-C-A; band of 42 kDa; Carries FAD; also called PP_4457; source: P. putida KT2442-oxyR1 harboring pUCP/PpOdhABC, co-expressed from the PpOdhB-C-A operon, purified (Ni-NTA); not shown: His6, N-terminal, kept
T2 sequence (looked up): B4 chain 1

purified protein [5] = substrate: N=C(N)NCCC[C@H](N[C@H](CCC(=O)O)C(=O)O)C(=O)O; experiment: purified protein; conditions: FAD, FMN, [2Fe-2S] the β- and α-subunit were both necessary for substrate binding

| Molecule | Km (purified protein [3]) [mM] | kcat (purified protein [3]) [s⁻¹] | kcat/Km (purified protein [3]) [M⁻¹ s⁻¹] | also measured |
| --- | --- | --- | --- | --- |
| PpOdhC, γ-subunit of opine dehydrogenase from Pseudomonas putida KT2440 (enzyme) |  |  |  | stoichiometry N [1]: 1 |
| O=C(O)CCC(=O)C(=O)O [α-ketoglutarate] |  |  |  | IC50 [2]: 589 µM |
| B1 | 19.5 | 72.8 | 3730 |  |
| B2 | 4.81 | 0.0982 | 20.3 |  |
| B3 |  |  |  | stoichiometry N [4]: ~1 |
| B4 |  |  |  | Km (purified protein [5]): 0.476 mM; kcat (purified protein [5]): 315 s⁻¹; kcat/Km (purified protein [5]): 663000 M⁻¹ s⁻¹ |
